Results published in patent US8940864.

Molecular target: C-CA (W184A/M185A) (HIV-1) (UniProt P04591)
Assay: NMR, slow exchange kinetics of binding

For NYAD-1 (peptide), the Kd was less than 10 µM.
